12 molecules from patent publication EP4588489A1, “LINKER FOR ANTIBODY-DRUG CONJUGATE AND USE THEREOF” (priority 2022, dated 2024) can be followed below.

Sequences and labels used below:
T1: TROP2 (UniProt P09758 27-323, limits assumed)
T1 sequence (looked up): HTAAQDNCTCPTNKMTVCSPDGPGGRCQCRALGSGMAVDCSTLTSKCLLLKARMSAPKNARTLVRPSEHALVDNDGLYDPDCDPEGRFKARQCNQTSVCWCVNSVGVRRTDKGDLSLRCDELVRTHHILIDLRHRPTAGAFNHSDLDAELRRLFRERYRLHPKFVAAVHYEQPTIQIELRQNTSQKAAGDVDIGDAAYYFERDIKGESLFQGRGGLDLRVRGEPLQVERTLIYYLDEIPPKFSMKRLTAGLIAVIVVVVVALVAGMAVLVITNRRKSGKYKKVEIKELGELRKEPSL

B1: hRS7-CPD3-NC-D4 (antibody, human IgG1, kappa, V domains shown)
VH: QVQLQQSGSELKKPGASVKVSCKASGYTFTNYGMNWVKQAPGQGLKWMGWINTYTGEPTYTDDFKGRFAFSLDTSVSTAYLQISSLKADDTAVYFCARGGFGSSYWYFDVWGQGSLVTVSS
VL: DIQLTQSPSSLSASVGDRVSITCKASQDVSIAVAWYQQKPGKAPKLLIYSASYRYTGVPDRFSGSGSGTDFTLTISSLQPEDFAVYYCQQHYITPLTFGAGTKVEIKR
modifications: linker-drug CPD3 on cysteines of reduced interchain disulfides; label D4
B2: hRS7-CPD1-NC-D4 (antibody, human IgG1, kappa, V domains shown)
VH: B1 VH
VL: B1 VL
modifications: linker-drug CPD1 on cysteines of reduced interchain disulfides; label D4
B3: hRS7-CPD6-NC-D4 (antibody, human IgG1, kappa, V domains shown)
VH: B1 VH
VL: B1 VL
modifications: linker-drug CPD6 on cysteines of reduced interchain disulfides; label D4
B4: hRS7-CPD2-NC-D4 (antibody, human IgG1, kappa, V domains shown)
VH: B1 VH
VL: B1 VL
modifications: linker-drug CPD2 on cysteines of reduced interchain disulfides; label D4
B5: hRS7-CPD5-NC-D4 (antibody, human IgG1, kappa, V domains shown)
VH: B1 VH
VL: B1 VL
modifications: linker-drug CPD5 on cysteines of reduced interchain disulfides; label D4
B6: hRS7-CPD4-NC-D4 (antibody, human IgG1, kappa, V domains shown)
VH: B1 VH
VL: B1 VL
modifications: linker-drug CPD4 on cysteines of reduced interchain disulfides; label D4
B7: hRS7-CPT005-D4 (antibody, human IgG1, kappa, V domains shown)
VH: B1 VH
VL: B1 VL
modifications: linker-drug CPT005 on cysteines of reduced interchain disulfides; label D4
B8: hRS7-CPT009-D4 (antibody, human IgG1, kappa, V domains shown)
VH: B1 VH
VL: B1 VL
modifications: linker-drug CPT009 on cysteines of reduced interchain disulfides; label D4
B9: hRS7-CPT004-D4 (antibody, human IgG1, kappa, V domains shown)
VH: B1 VH
VL: B1 VL
modifications: linker-drug CPT004 on cysteines of reduced interchain disulfides; label D4
B10: hRS7-CL2A-SN38-D8 (antibody, human IgG1, kappa, V domains shown)
VH: B1 VH
VL: B1 VL
modifications: CL2A-SN38 on cysteines of reduced interchain disulfides; label D8
B11: hRS7-SN38-D8 (antibody, human IgG1, kappa, V domains shown)
VH: B1 VH
VL: B1 VL
modifications: comp.5-linked SN38 on cysteines of reduced interchain disulfides; label D8
B12: hRS7-CPT006-D4 (antibody, human IgG1, kappa, V domains shown)
VH: B1 VH
VL: B1 VL
modifications: linker-drug CPT006 on cysteines of reduced interchain disulfides; label D4

The first assay addresses T1, TROP2. In words: cell-based or functional assay.
Regarding B1, the “EC50(nM), inhibition of BxPC-3 cell proliferation” value (“EC50(nM), inhibition” for short) is 0.309 nM and the “Relative activity (%), inhibition of BxPC-3 cell proliferation” value (“Relative activity (%), inhibition” for short) was 156%.

Consider B2, for which the “EC50(nM), inhibition” value was determined as 0.468 nM and the “Relative activity (%), inhibition” value turned out to be 103%.

As for B3, the “EC50(nM), inhibition” value was 0.341 nM and the “Relative activity (%), inhibition” value was 111%.

For the molecule B4, the “EC50(nM), inhibition” value came to 0.327 nM and the “Relative activity (%), inhibition” value turned out to be 147%.

For the molecule B5, the “EC50(nM), inhibition” value is 0.478 nM and the “Relative activity (%), inhibition” value is 79.6%.

For the molecule B6, the “EC50(nM), inhibition” value came to 0.424 nM and the “Relative activity (%), inhibition” value was 89.6%.

Another assay addresses T1, TROP2. In words: cell-based or functional assay. This is another data set of the same source.
Regarding B7, the “EC50(nM), inhibition” value worked out at 0.101 nM and the “Relative activity (%), inhibition” value amounted to 155%.

Take B8: the “EC50(nM), inhibition” value was found to be 0.353 nM and the “Relative activity (%), inhibition” value came to 50.7%.

Take B9: the “EC50(nM), inhibition” value was 0.144 nM and the “Relative activity (%), inhibition” value was found to be 109%.

B10: the “EC50(nM), inhibition” value came out at 0.259 nM and the “Relative activity (%), inhibition” value was determined as 100%.

For the molecule B11, the “EC50(nM), inhibition” value came out at 6.46 nM.

Turning to B12, the “EC50(nM), inhibition” value was determined as 0.259 nM and the “Relative activity (%), inhibition” value is 60.4%.
